Experimental data as given in US20220195015A1 (published 2022).

Biological target: SARS-CoV-2 spike receptor binding domain (RBD), wild type (SARS-CoV-2, UniProt P0DTC2 319-539)
Test: ELISA on coated RBD protein

Row | Binder | EC50 [ng/mL]
1 | C054 (antibody, V domains shown) VH: EVQLVESGGGLIQPGGSLRLSCAASGFTVSNNYMSWVRQAPGKGLEWVSVIYSGGSTYDADSVKGRFTISRDNSKNTLYLQMNSLSAEDTAVYYCAREGDVEGYYDFWSGYSRDRYYFDYWGQGTLVTVSS VL: QSALTQPASVSGSPGQSITISCTGTSSDVGGYNYVSWYQQHPGKAPKLMIYDVSNRPSGVSNRFSGSKSGNTASLTISGLQAEDEADYYCSSYTSSSARVFGTGTKVTVL | 1.58
2 | C053 (antibody, V domains shown) VH: EVQLVESGGGLIQPGGSLRLSCAASGFIVSNNYMSWVRQAPGKGLDWVSVIYSGGTTYYADSVKGRFTISRDNSKNTLYLQMNSLRAEDTAVYYCAREGDVEGYHDSWSGYSRDRYYFDYWGQGTLVTVSS VL: QSALTQPASVSGSPGQSITISCTGSSSDVGGYNFVSWYQQHPGRAPKLMIYDVSNRPSGVSNRFSGSKSGNTASLTISGLQVEDEADYYCSSYTNNNTRVFGTGTKVTVL | 1.53
3 | C058 (antibody, V domains shown) VH: QVQLVQSGAEVKKPGASVKVSCKASGYIFTDYSMHWVRQAPGQGLEWIGWVNPNSGGTNYAQKFQGWVTMARDTSITTVYMELSRLKSDDTAVYFCARGPLFHRLVYDFWSGYHDGFDMWGQGTMVTVSS VL: QSALTQPASVSGSPGQSITISCTGTSSDVGGYKFVSWYQQHPGKAPKLMIYEVSNRPSGVSNRFSGSKSGNTASLTISGLQAEDEADYYCNSYTSSSTWVFGGGTKLTVL | 2.28
4 | C050 (antibody, V domains shown) VH: EVQLVESGGGLFQPGGSLRLSCAASGFSVRNNYVSWVRQAPGKGLEWVSVIYSGGTTYYADSVKGRFTISRDISENTLYLQMNSLRAEDTAVYYCAREGDVEGLHDFWSGYSRDRYYFDYWGQGTLVTVSS VL: QSALTQPASVSGSPGQSIIISCTGTSGDIGGYNYVSWYQQHPGKAPKLMIYDVSFRPSGVSNRFSGSKSDNTASLTISGLQAEDEADYYCSSFTGNNTRVFGTGTKVTVL | 1.93
5 | C051 (antibody, V domains shown) VH: EVQLVESGGGLIQAGGSLRLSCAASGFGVRNNYMSWVRQAPGKGLEWVSVIYSGGTTYYADSVKGRFTISRDNSKNTVFLQMNSLRAEDTAVYYCAREGDVEGFSDLWSGYSRDRYYFDYWGQGTLVTVSS VL: QSALTQPASVSGSPGQSITFSCTGTSSDVGGYNYVSWYQQYPGKAPKLLIYDVTNRPSGVSDRFSGSKSGNTASLTISGLQAEDEADYYCSSFTSSNTRVFGTGTKVTVL | 1.65
6 | C052 (antibody, V domains shown) VH: EVQLVESGGGLIRPGGSLRLSCAASGFSVSNNYMSWVRQAPGKGLEWVSVIYSGGTTYYADSVKGRFNISRDNSKNTVYLQMNSLRAEDTAVYYCAREGDVEGYYDFWSGYSRDRYYFDYWGQGALVTVSS VL: QSALTQPASVSGSPGQSITISCTGTSSDVGGYNYVSWYQQHPGKAPKLMIYDVSNRPSGVSNRFSGSKSGNTASLTISGLQAEDEADYYCNSYTSNNTRVFGTGTKVTVL | 1.23
7 | C144 (antibody, V domains shown) VH: EVQLVESGGGLIQPGGSLRLSCAASGFTVSNNYMSWVRQAPGKGLEWVSVIYSGGSTYYADSVKGRFTISRDKSKNTLYLQMNRLRAEDTAVYYCAREGEVEGYNDFWSGYSRDRYYFDYWGQGTLVTVSS VL: QSALTQPASVSGSPGQSITISCTGTSSDVGGYNYVSWYQQHPGKAPKLMIYDVSNRPSGVSNRFSGSKSGNTASLTISGLQAEDEADYYCSSYTSSSTRVFGTGTKVTVL | 1.83
8 | C709 (antibody, V domains shown) VH: QVQLVQSGAEVRKPGASVKVSCMASGYTFNTYDINWVRQGTGQGLEWMGWMNPNSGNTGHAQKFQGRVAMTVNTSMNTAYMELSSLRSEDTAVYYCARGADMLNVAVGADFDYWGQGTLVTVSS VL: QSALTQPPSASGSPGQSVTISCTGTSSDVGGYNFVSWFQQHPGKAPKLMIYEVSKRPSGVPDRFSGSKSANTASLTVSGLQAEDEADYFCSSYAGSNNWVFGGGTKLTVL | 7.56
9 | C164 (antibody, V domains shown) VH: EVQLVESGGGLVQPGGSLRLSCAASGFSVSTKYMTWVRQAPGKGLEWVSVLYSGGSDYYADSVKGRFTISRDNSKNALYLQMNSLRVEDTGVYYCARDSSEVRDHPGHPGRSVGAFDIWGQGTMVTVSS VL: QSALTQPASVSGSPGQSITISCTGTSNDVGSYTLVSWYQQYPGKAPKLLIFEVTKRSSGISNRFSGSKSGNTASLTISGLQGEDEADYYCCSYAGASTFVFGGGTKLTVL | 1.41
10 | C055 (antibody, V domains shown) VH: EVQLVESGGGLVQPGGSLRLSCAASGFSVSTKYMTWVRQAPGKGLEWVSVLYSGRTDYYADSVKGRFTISRDSSKNILYLQMSSLRVEDTGFYYCARDSSEVRDHPGHPGRSVGAFDIWSQGTMVTVSS VL: QSALTQPASVSGSPGQSIAISCTGTSNDVGSYTLVSWYQQYPGKAPKLLIFEDSQRSSGISNRFSGSKSGNTASLTISGLRGEDEADYYCCSYAGSHTFVFGGGTKVTVL | 1.25
11 | C143 (antibody, V domains shown) VH: EVQLVESGGGLVQPGGSLRLSCAASGFSVSTKYMTWVRQAPGKGLEWVSVLYSGGSDYYADSVKGRFTISRDNSKNALYLQMNSLRVEDTGVYYCARDSSEVRDHPGHPGRSVGAFDIWGQGTMVTVSS VL: QSALTQPASVSGSPGQSITISCTGTSNDVGSYTLVSWYQQYPGKAPKLLIFEGTKRSSGISNRFSGSKSGNTASLTISGLQGEDEADYYCCSYAGASTFVFGGGTKLTVL | 2.01
12 | C708 (antibody, V domains shown) VH: EVQLVESGGGLVQPGGSLRLSCAASGFSFSTYWMSWVRQAPGKGLEWVADIKQDGSEKYFVDSVKGRFTISRDNAKNSLYLHLNSLRAEDTAVYYCAREMAGSGNYYWFGYGMDVWGQGTTVTVSS VL: IRMTQSPSSVSASVGDRVTITCRASQGISSWLAWYQQKPGKAPKLLIYAASSLQSGVPSRFSGSESGTDFTLTISSLQPEDFATYYCQQANSFPLTFGGGTKVEIK | 130
13 | C707 (antibody, V domains shown) VH: EVQLVESGGGLVKPGGSLRLSCAASGFTFSSYSMNWVRQAPGKGLAWVSSISSSNNIIYYADSVKGRFTISRDDAKDSLYLHMKSLRADDTAVYFCARVPSWAPYQLLPGPFDYWGQGILVTVSS VL: IRMTQSPSSLSASVGDRVTITCQASQAIASYLSWYQHKPGRAPKLLIYDASNLEIGVPSRFSGSGSGTDFTFTISSLQSEDNATYYCQQYESLPGTFGGGTKVEIK | 26

Biological target: SARS-CoV-2 spike receptor binding domain (RBD), wild type (SARS-CoV-2, UniProt P0DTC2 319-539)
Test: ELISA, RBD protein coated, mAb titrated

Row | Binder | EC50 [ng/mL]
14 | C213 (antibody, V domains shown) VH: EVQLVESGGGLVKPGGSLRLSCAASGFTFSSYSMNWVRQAPGKGLEWVSSISSSSSYIYYADSVKGRFTISRDNAKNSLYLQMNSLRAEDTAVYYCARVQVGARGWVDYWGQGTLVTVSS VL: NFMLTQPHSVSESPGKTVTISCTRSSGSIASNYVQWYQQRPGSAPTTVIYEDNERPSGVPDRFSGSIDSSSNSASLTISGLKTEDEADYYCQSYDRINWVFGGGTKLTVL | 2.02
15 | C545 (antibody, V domains shown) VH: EVQLLESGGGLVKPGGSLRLSCAASGFTFSDYSMTWVRQAPGKGLEWVSFISSSSTYIYYADSVKGRFTISRDNAKSSLYLQMNRLRAEDTAVYYCTRVQVGARGWADYWGQGTLVTVSS VL: NFMLTQPLSVSESPGKTVTISCTRSSGSIASNYVQWYQQRPGGAPTTVIYEDTQRPSGVPDRFSGSIDSSSNSASLTISGLKTEDEADYYCQSCDTINWVFGGGTKLTVV | 3.68
16 | C217 (antibody, V domains shown) VH: EVQLVESGGGLVKPGGSLRLSCAASGFTFSSYSMNWVRQAPGKGLEWVSFISSRSSYIYYADSVKGRFTISRDNAKNSLYLQMNSLRAEDTAVYYCARVQVGARGWVDYWGQGTLVTVSS VL: NFMLTQPHSVSESPGKTVTISCTRSSGSIASNYVQWYQQRPGSAPTTVIYEDNQRPSGVPDRFSGSIDSSSNSASLTISGLKTEDEADYYCQSYDSINWVFGGGTKLTVL | 2.28
17 | C552 (antibody, V domains shown) VH: QVQLVESGGGVVQPGRSLRLSCAASGFTFSSYAMHWVRQAPGKGLEWVALISYDGSNKHYADSVKGRFTISRDNSKNTLYLQMNSLRAEDTAVYYCARAGTTNSDYFDYWGQGTLVTVSS VL: SYELTQPPSVSVAPGKTARITCGGNNIGSKSVHWYQQKPGQAPVLVIYYDTDRPSGIPERFSGSNSGNTATLTISRVEAGDEADYYCQVWDSSSALWVFGGGTKLTVL | 1.08
18 | C542 (antibody, V domains shown) VH: EVQLVESGGGLVQPGGSLRLSCAASGLTVTSNYMSWVRQAPGRGLEWVSLIYPGGTTYYADSVKGRFTVSRDNSKNTLYLQMDSLRAEDTGVYYCARETLGRGGDCWGQGTLVTVSS VL: DIQMTQSPSSLSASVGDRVTITCQASQDISNFLNWYQQKPGKAPKLLIYDASNLETGVPSRFSGSRSGTDFTFTISSLQPDDIATYYCQQYDNLPRSFGQGTKLEIK | 1.07
19 | C549 (antibody, V domains shown) VH: QVQLVQSGAEVKKPGSSVKVSCKASGGTFSTSAISWVRQAPGQGLEWMGGIIPFFGTPNYAQKFQGRVTIIADESTTTAYMELSGLRFEDSAVYYCARREPYGPRDYYYFFGMDVWGPGTTVTVSS VL: QSALTQPPFASASLGASVTLTCTLSSDYSYYKVDWYQQRPGKGPRFVIRVGPGGIVGSKGDGFPDRFSVLGSGLNRSLTINNIQEEDEGDYHCGADEGSGGTFVGVFGGGTKLTV | 1.76
20 | C548 (antibody, V domains shown) VH: QVQLVQSGAEVKKPGSSVKVSCKASGGTFSSYAISWVRQAPGQGLEWMGGIIPIFGTANYAQKFQGRVTITADESTSTAYMELSSLRSEDTAVYYCARREAYGPRDYYYYYGMDVWGQGTTVTVSS VL: QSALTQPPSASASLGASVTLTCTLSSGYSNYKVDWYQQRPGKGPRFVMRVGTGGIVGSKGDGIPDRFSVLGSGLNRYLTIKNIQEEDESDYHCGADQGSGSNFVGVFGGGTKLTVL | 1.72
21 | C544 (antibody, V domains shown) VH: QVQLVQSGAEVKKPGASVKVSCKASGYTFSSHDINWVRQATGQGLEWVGWMNPNSGNTGSAQSFQGRVTLTRNASISTAYLELSSLRSEDTAVYFCARGFSLTWYFDLWGRGTLVTVSS VL: SYELTQPPSVSAAPGKTARITCGGNNIGGKNVHWYQQKPGQAPVLVVFDDSDRPSGIPERFSGSNSGNTATLTISRVEAGDEADYYCQLWDSTSDHPDVVFGGGTQLTVL | 2.34
